Reference: article PMC12603206, “The sensitive and selective electrochemical detection of carcinoembryonic antigen using a nanoMIPs-aptamer sandwich assay”

Molecular target: Carcinoembryonic antigen (CEA) (UniProt P06731 35-685)
Experiment: electrochemical nanoMIPs-aptamer sandwich assay (SWASV of Pb2+); CEA captured on nanoMIPs electrode; aptamer on MOF-Pb probe; linear 1-1000 ng/mL, LOD 1.4 ng/mL (sensor values, not Kd); CEA in 0.01 M PBS pH 7.4, 1 h on nanoMIPs electrode, PBS/0.05% TWEEN20 wash; MOF-Pb-Apt probe (stored in 10 mM Tris-HCl pH 7.4) 30 min; temperature not stated
Details: protein: commercial

Chain of Carcinoembryonic antigen (CEA) (P06731 35-685): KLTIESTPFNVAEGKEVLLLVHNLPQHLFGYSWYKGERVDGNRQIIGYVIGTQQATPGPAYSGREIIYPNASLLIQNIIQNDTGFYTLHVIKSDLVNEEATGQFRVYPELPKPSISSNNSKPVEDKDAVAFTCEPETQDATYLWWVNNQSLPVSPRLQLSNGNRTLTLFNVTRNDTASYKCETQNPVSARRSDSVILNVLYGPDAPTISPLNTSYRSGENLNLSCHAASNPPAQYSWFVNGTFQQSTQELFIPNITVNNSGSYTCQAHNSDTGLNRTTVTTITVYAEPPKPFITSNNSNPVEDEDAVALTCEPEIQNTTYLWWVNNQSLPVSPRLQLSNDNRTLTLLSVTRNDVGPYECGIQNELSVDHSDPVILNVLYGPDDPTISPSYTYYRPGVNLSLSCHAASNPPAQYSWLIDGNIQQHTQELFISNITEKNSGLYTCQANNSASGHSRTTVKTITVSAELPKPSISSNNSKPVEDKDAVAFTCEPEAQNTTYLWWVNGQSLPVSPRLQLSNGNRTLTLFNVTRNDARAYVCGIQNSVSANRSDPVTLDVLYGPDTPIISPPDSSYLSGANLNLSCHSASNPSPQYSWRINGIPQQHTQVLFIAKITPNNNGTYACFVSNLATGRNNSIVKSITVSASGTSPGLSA

B1: CEA-specific aptamer (ssDNA)
DNA: ATACCAGCTTATTCAATT
modifications: 5'-phosphate-C6
B1: binds.
